# “Also recorded” adds a separate entry of the source.
# B1: SYM6: FGF-1 core mutant Leu44→Phe/Met67→Ile/Leu73→Val/Val109→Leu/Leu111→Ile/Cys117→Val (protein, UniProt P05230 16-155, looked up, variant L44F M67I L73V V109L L111I C117V)
# Fibroblast growth factor 1: FNLPPGNYKKPKLLYCSNGGHFLRILPDGTVDGTRDRSDQHIQFQLSAESVGEVYIKSTETGQYLAIDTDGLVYGSQTPNEECLFLERLEENHYNTYISKKHAEKNWFLGIKKNGSVKRGPRTHYGQKAILFLPLPVSSD
# B2: WTΔ120-122: Wild type FGF-1 polypeptide with a deletion at positions 120-122, SEQ ID NO: 3 (protein)
# chain: FNLPPGNYKKPKLLYCSNGGHFLRILPDGTVDGTRDRSDQHIQLQLSAESVGEVYIKSTETGQYLAMDTDGLLYGSQTPNEECLFLERLEENHYNTYISKKHAEKNWFVGLKKNGSCKGTHYGQKAILFLPLPVSSD
# modifications: Human FGF-1 mutant WTD120-122
# Columns and labels:
# [1] = monitored by fluorescence signal, cited from earlier work
# [2] = Isothermal equilibrium denaturation in guanidine HCl monitored by CD; format: physicochemical; conditions: relative to SYM6ΔΔ
# Procedure: Protein samples were equilibrated overnight in 20 mM N-2-(acetamido)iminodiacetic acid (ADA), 100 mM NaCl pH 6.60 at 298K in 0.1M increments of guanidine HCl (GuHCl). All samples contained a final protein concentration of 25 μM. An Aviv model 202 circular dichroism spectrometer (Proterion Corp., Piscataway, N.J.) equipped with a Peltier controlled temperature unit maintaining a constant temperature of 298K was used for all spectroscopic measurements. For each sample, triplicate scans were collected and averaged. Buffer traces were collected, averaged and subtracted from the sample traces. Data smoothing was performed prior to buffer subtraction using a 5-point Fourier transform filter. The denaturation process was monitored by observing the change in CD signal at 227 nm with increasing GuHCl, according to published references. The general purpose non-linear least squares fitting program DataFit™ (Oakdale Engineering, Oakdale Pa.) was used to fit the change in molar ellipticity at 227 nm versus GuHCl concentration to a six parameter two state model: F=(F0N+SN[D]+F0D+SD[D])e^−((ΔG0+m[D]/RT)/1+e^−((ΔG0+m[D]/RT) (1) where [D] is the denaturant concentration, F0N and F0D are the 0M denaturant molar ellipticity intercepts for the native and denatured states, respectively, and SN and SD are the slopes of the native and denatured state baselines, respectively. ΔG0 and m describe the linear function of the unfolding free energy versus denaturant concentration at 298K. The effect of a given mutation upon the stability of the protein (ΔΔG) was calculated by taking the difference between the Cm values for WT* and mutant and multiplying by the average of the m values, as described by Pace and Scholtz (Measuring the conformational stability of a protein; in Protein Structure: A Practical Approach, Creighton, T. E., ed., pp. 299-321, Oxford University Press, Oxford; 1997): ΔΔG=(CmWT*−Cm mutant)(mWT*+mmutant)/2 (2) Folding Kinetics Measurements.
# Previous studies by others of the stability and folding of FGF-1 have been performed by monitoring the fluorescence signal of the single buried Trp 107 in FGF-1. This Trp in the WT* structure is somewhat unusual in that it is more highly quenched in the native state than the denatured. […] We have previously compared the fluorescence and CD spectroscopic response of FGF-1 to denaturation by GuHCl and shown essentially indistinguishable results for both his-tagged and non-his-tagged forms. A tabulation of the mutant thermodynamic data from isothermal equilibrium denaturation, monitored by CD signal, is listed in Table II. The data in this table for the SYM6 mutant are from our previously published isothermal equilibrium denaturation study monitored by fluorescence.
# [3] = Precipitation during purification or concentration; format: physicochemical
# Procedure: All mutant proteins, with the exception of the SYM6 mutant were expressed at levels similar to the WT* protein (i.e. ˜30-100 mg/L). […] The His-tag provides the WT* and mutant FGF-1 proteins with nickel binding affinity, and FGF-1 naturally has a heparin binding site. These two affinity sites were employed in a purification scheme utilizing sequential nickel-NTA and heparin Sepharose® affinity chromatography resins. However, mutant forms of FGF-1 involving the Δ120-122 mutation lacked heparin-binding affinity. These mutants were, therefore, purified by the substitution of gel filtration chromatography for the heparin Sepharose® affinity chromatography. The extinction coefficients used for concentration determination were E280nm (0.1%, 1 cm)=1.26 for WT* and other mutations not involving deletions or the Leu44 ? […] Phe, and E280nm (0.1%, 1 cm)=1.31 for all deletion mutations (determined by dithionitrobenzoate titration of cysteine residues).
# Due to the relatively weak differential CD signal of native and denatured FGF-1, the folding kinetics study required relatively high protein concentrations (>5 mg/ml). […] The SYM6Δ120-122 mutant is substantially destabilized relative to the WT* protein (see Table II) and presents a relatively short “folding arm” in the Chevron plot, for this reason there is greater uncertainty associated with the folding kinetics determined for this mutant. […]
# NIH 3T3 fibroblasts = experiment: Cell proliferation (mitogenic activity) assay; format: cell-based; conditions: predicted from data on other Δ120-122 mutants
# Procedure: NIH 3T3 fibroblasts were initially plated in Dulbecco's modified Eagle's medium (DMEM) (American Type Culture Collection, Manassas Va.) supplemented with 10% (v/v) newborn calf serum (NCS) (Sigma, St. Louis Mo.), 100 units of penicillin, 100 μg streptomycin, 0.25 μg Fungizone™ and 0.01 mg/ml gentamicin (Gibco, Carlsbad Calif.) (“serum-rich” medium) in T75 tissue culture flasks (Fisher, Pittsburgh Pa.). The cultures were incubated at 37° C. and all cell growth was performed with 5% CO2 supplementation. At approximately 80% cell confluence, the cells were washed with 5 ml cold 0.14M NaCl, 5.1 mM KCl, 0.7 mM Na2HPO4 and 24.8 mM Trizma® base, pH 7.4 (TBS) and subsequently treated with 5 ml of a 0.025% trypsin solution (Invitrogen Corp., Carlsbad Calif.). Cell synchronization was initiated by serum starvation in DMEM with 0.5% NCS, 100 units of penicillin, 100 μg streptomycin, 0.25 μg Fungizone™ and 0.01 mg/ml gentamicin (“starvation” medium). The cells were seeded in T25 tissue culture flasks (Fisher, Pittsburgh, Pa.) at a cell density of 3.0×10^4 cells/cm^2 (representing ˜20% confluence). Duplicate flasks were used for each protein concentration. Cultures were incubated for 48 hours at 37° C., the medium was then decanted and replaced with fresh medium supplemented with the appropriate concentration of FGF-1 polypeptide, and incubated for an additional 48 hours. After this incubation, the medium was decanted and the cells were washed with 1 ml cold TBS pH 7.4. 1 ml of 0.025% trypsin was then added to release the cells from the flask surface, and 2 ml of serum-rich medium were added to dilute and inhibit the trypsin. The cells were counted using a hemocytometer (Hausser Scientific Partnership, Horsham Pa.). Experiments were performed in quadruplicate and the cell densities were averaged. The relationship between the cell number and log concentration of added growth factor was fit to a sigmoidal function.
# Mitogenic activity towards NIH 3T3 fibroblasts was determined for WT*, SYM5, SYM5Δ104-106, SYM5Δ120-122, and SYM6ΔΔ mutants. […] The NIH 3T3 fibroblast proliferative activity of WT* FGF-1 yielded an effective concentration for 50% maximal stimulation (EC50) of 60 ng/ml (FIG. 3).
# [4] = Heparin Sepharose affinity chromatography / heparin-binding affinity; conditions: predicted from data on other Δ120-122 mutants
# Text: All studies herein disclosed utilized a synthetic gene for the 140 amino acid form of human FGF-1 with the addition of an amino-terminal six residue “His-tag” to facilitate purification using nickel nitrilotriacetic acid (Ni-NTA) affinity resin (QIAGEN, Valencia Calif.). The QuikChange® site-directed mutagenesis protocol (Stratagene, La Jolla Calif.) was used to introduce mutations, individually or in combination, using mutagenic oligonucleotides of 25 to 31 bases in length (Biomolecular Analysis Synthesis and Sequencing Laboratory, Florida State University). For deletions involving residues 104-106 and 120-122, mutagenic oligonucleotides were used to delete these positions as well as to simultaneously create point mutations Ala103 ? Gly and Arg119 ? Gly, respectively. […]
# All mutant proteins, with the exception of the SYM6 mutant were expressed at levels similar to the WT* protein (i.e. ˜30-100 mg/L). […] Phe, and E280nm (0.1%, 1 cm)=1.31 for all deletion mutations (determined by dithionitrobenzoate titration of cysteine residues).
# To quantify the reduced affinity for heparin (a polysulfonated polysaccharide) we determined the affinity for sucrose octasulfate, a structural mimic of a heparin dimer, by isothermal titration calorimetry. […]
Molecule,Cm ([1]; previously reported),m-value ([1]; previously reported),ΔG0 ([1]; previously reported),"ΔΔG ([1]; relative to WT*, previously reported data)",effect on stability of the two loop insertions [2],precipitation / solubility (in words) [3],"mitogenicity, predicted (NIH 3T3 fibroblasts)","heparin binding affinity, predicted [4]"
B1,0.54 ± 0.01 M,19.3 ± 1.9 kJ/mol M,2.49 ± 0.19 kcal/mol,2.44 kcal/mol,+25.3 kJ/mol,tendency to precipitate during purification; also recorded: typically precipitated during concentration,–,–
B2,–,–,–,–,–,–,increased biological activity with regard to mitogenicity,decreased heparin binding affinity

# From patent publication US7790682B1, “Engineered human acidic fibroblast growth factors and associated methods” (The Florida State University Research Foundation, Inc., priority 2003, dated 2010)
